# Article PMC7512017
# “And” between values parts separate entries of the source, which are not always exact repeats. Equal entries are not always repeated.
# Legend:
# [1] = target: apo-CCP2 (C-terminal domain-like carotenoid protein 2 from Tolypothrix sp. PCC 7601, without carotenoid) (Tolypothrix sp. PCC 7601); assay: SEC-MALS + other: SEC-SAXS; SEC-SAXS-MALS, Shodex KW802.5 column, 10 mM Na-phosphate pH 7.0, 100 mM NaCl, 20 °C; samples at 5 mg/mL (legend: apo tetramer sample 10 mg/mL); also run with reductant (5 mM TCEP)
# [2] = target: apo-CCP2 (C-terminal domain-like carotenoid protein 2 from Tolypothrix sp. PCC 7601, without carotenoid) (Tolypothrix sp. PCC 7601); assay: SEC; analytical SEC on a Superdex 75 column; masses estimated with protein molecular weight standards
# [3] = target: holo-CCP2 (C-terminal domain-like carotenoid protein 2 from Tolypothrix sp. PCC 7601, with bound canthaxanthin) (Tolypothrix sp. PCC 7601); assay: SEC-MALS + other: SEC-SAXS; SEC-SAXS-MALS, Shodex KW802.5 column, 10 mM Na-phosphate pH 7.0, 100 mM NaCl, 20 °C; samples at 5 mg/mL (legend: apo tetramer sample 10 mg/mL); also run with reductant (5 mM TCEP)
# [4] = target: holo-CCP2 (C-terminal domain-like carotenoid protein 2 from Tolypothrix sp. PCC 7601, with bound canthaxanthin) (Tolypothrix sp. PCC 7601); assay: SEC; analytical SEC on a Superdex 75 column; masses estimated with protein molecular weight standards
Substance,stoichiometry N [1],stoichiometry N [2],stoichiometry N [3],stoichiometry N [4]
"apo-CCP2 (C-terminal domain-like carotenoid protein 2 from Tolypothrix sp. PCC 7601, without carotenoid) (natural protein)",2 and 3 and 4,2 and 4,,
"holo-CCP2 (C-terminal domain-like carotenoid protein 2 from Tolypothrix sp. PCC 7601, with bound canthaxanthin) (natural protein)",,,2 and 4,2 and 4
